In patent US9399667B2, “Peptides derived from cytotoxicity receptor natural killer protein 44 NKP44” (03;b. G. NEGEV TECHNOLOGIES AND APPLICATIONS LTD., AT …, priority 2012, dated 2016):
Each block holds one substance with its values, some of them ahead of it.

Assays:
[1] = system: human cancer cells; assay: Direct binding of biotin-conjugated NKp44-derived peptides to human cancer cells (flow cytometry); conditions: biotin-conjugated peptide 10 μg/well; number in brackets is an undefined grade
[2] = target: T1, NKp44-Ig (Homo sapiens, UniProt O95944); assay: Effect of peptides on NKp44-Ig binding to tumor cells (flow cytometry); conditions: for Effect on NKp44-Ig binding to tumor cells: 2 μg/well NKp44-Ig, 10 μg/well peptide, 1.5 hr, number in brackets is an undefined grade
T1 construct: fusion proteins containing the extracellular domains NKp30, NKp44 or NKp46 fused to the Fc portion of human IgG1
T1 sequence (O95944 22-192 limits assumed): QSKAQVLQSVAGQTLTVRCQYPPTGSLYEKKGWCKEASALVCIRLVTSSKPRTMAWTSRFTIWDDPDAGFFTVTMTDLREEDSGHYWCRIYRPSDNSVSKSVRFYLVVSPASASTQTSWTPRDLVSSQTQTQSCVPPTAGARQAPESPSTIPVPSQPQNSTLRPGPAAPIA
Experimental: (§1) Binding of rNK receptors and binding inhibition assays were performed as follows: 1×10^5 target cells were incubated with 2 μg of the NK receptor-Ig and 5 or 10 μg of the peptides in staining solution consisting of 0.5% (w/v) BSA and 0.05% sodium azide in PBS at 4° C. for 1.5 hrs. Then, cells were washed and stained with APC-conjugated anti-human IgG. Dead cells were detected with propidium iodide (PI). Percentage of inhibition was calculated as the percent of the cell population showing a reduced staining by the NK receptor-Ig in the presence of peptides as compared to reference positive staining by the NK receptor-Ig without peptides. […] Flow cytometry was performed using a FACSCanto II or FACScalibur (BD Bioscience) and results were analyzed using Diva 6.1.2 or CellQuest 3.3, respectively.
Target cells were incubated for 1.5 hr with 2 μg/well NKp44-Ig and 10 μg/well of each peptide. NKp44-Ig binding intensity was determined by flow cytometry, using fluorescent 2Ab (goat anti-mouse mAb).
(§2) Target cells were stained with 2 μg/well of NK receptor-Igs in the presence of 10 μg/well of SEQ ID NO: 4, 5, 55 (15mer-shared core sequence between SEQ ID NO:4 and 5), or SEQ ID NO: 1. The NK receptor-Ig staining intensities were determined by flow cytometry, using fluorescent APC-conjugated F(ab′)2 goat anti-human IgG.

[3] = system: human cancer cells, MIN6 murine beta cell line and primary mouse beta cells; assay: Direct binding of biotin-conjugated NKp46-derived peptides to target cells (flow cytometry, fluorescent Streptavidin); conditions: biotin-conjugated peptide 10 μg/well, number in brackets is an undefined grade
[4] = target: T2, NKp46D2-Ig (Homo sapiens, UniProt O76036); assay: Effect of peptides on NKp46D2-Ig binding to target cells (flow cytometry); conditions: for Effect on NKp46D2L binding to cells: 1.5 hr, compared to staining without peptide or with non-affecting peptides, number in brackets is an undefined grade
T2 construct: made in house
Experimental: as §1
(§3) Target cells were incubated for 1.5 hr with 2 μg/well NKp46D2-Ig and 10 μg/well of each peptide. NKp46D2-Ig binding intensity was determined by flow cytometry, using fluorescent 2Ab (goat anti-mouse monoclonal antibody).
as §2

[5] = target: T3, LIR1-Ig (Homo sapiens, UniProt Q8NHL6); assay: Effect of peptides on LIR1-Ig binding to target cells (flow cytometry); conditions: for Binding of LIR1-Ig in the presence of peptide: Example 1, FIGS. 3 and 5, HeLa cells
T3 construct: made in house
Experimental: as §1, with “target cells were incubated with 2 μg of the NK receptor-Ig and 5 or 10 μg of the peptides in staining solution consisting” left out
as §3, §2

[6] = target: T4, NKp46-Ig (Homo sapiens, UniProt O76036); assay: Effect of peptides on NKp46-Ig binding to tumor cells (flow cytometry); conditions: Example 3, FIG. 9B/9C; 10 μg/well peptide; to a lesser extent than NKp46D2-Ig binding
T4 construct: fusion proteins containing the extracellular domains NKp30, NKp44 or NKp46 fused to the Fc portion of human IgG1; made in house
Experimental: as §1, §2

[7] = target: T5, NKp30-Ig (Homo sapiens, UniProt O14931); assay: Effect of peptide on NKp30-Ig binding to HeLa cells (flow cytometry); conditions: pep4 0.625 to 10 μg/well, FIG. 9D
T5 construct: fusion proteins containing the extracellular domains NKp30, NKp44 or NKp46 fused to the Fc portion of human IgG1; made in house
T5 sequence (O14931 19-135 limits assumed): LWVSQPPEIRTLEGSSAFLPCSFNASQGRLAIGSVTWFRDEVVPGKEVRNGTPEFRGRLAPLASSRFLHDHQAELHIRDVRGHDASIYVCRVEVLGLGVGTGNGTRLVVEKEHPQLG
Experimental: as §1, with “target cells were incubated with 2 μg of the NK receptor-Ig and 5 or 10 μg of the peptides in staining solution consisting” left out
as §2

[8] = system: NKp46-expressing NK cells; assay: Flow cytometry cytotoxicity assay: lysis of target tumor cells by human primary NK cells; type: cell-based
Experimental: (§4) NK cells were isolated from the peripheral blood of healthy donors using a human NK cell isolation kit (Miltenyi Biotec). NK purity was greater than 90% (CD3^−CD56^±). Purified NK cells were cultured in CellGro SCGM serum-free medium (CellGenix, 2001) supplemented with 10% heat inactivated human plasma from healthy donors, 1 mM sodium pyruvate, 2 mM L-glutamine, MEM non-essential amino acids, 1% penicillin/streptomycin, 10 mM HEPES (Gibco™) and 300 IU/ml of human IL-2 (Biological Industries Israel Ltd).
(§5) The flow cytometry cytotoxicity assay was previously described (Flodstrom et al. Diabetes 48, 706-713 (1999)). Effector human primary NK cells were labeled with CellTrace CFSE (Invitrogen, C3554). Analysis of 7-AAD for negative-CFSE target tumor cells was performed using a FACSCantoII and data were analyzed by Diva 6.1.2. For blocking experiments, NK cells were pre-incubated with mouse polyclonal anti-NKp46 serum or with naive serum 30 min at 4° C. before being combined with target cells. The NK degranulation assay was performed as previously described (Raulet, D. H. Nat Rev Immunol 3, 781-790 (2003); Biassoni, R. et al. Eur J Immunol 29, 1014-1020 (1999)).
Next, the influence of the peptide of SEQ ID NO: 4 on NK cells function was investigated. Target HeLa cells were plated and pep4 or mock peptide was added just before adding an effector human primary NK cell line. […] To verify that the peptide of SEQ ID NO: 4 inhibits NKp46-mediated lysis, anti-NKp46 serum was used to block the receptor on human primary NK cells.

[9] = system: human primary NK cells; assay: CD107a (LAMP-1) degranulation assay of human primary NK cells; type: cell-based; conditions: co-cultured with HeLa or 721.221 target cells for four hours at different E:T ratios; FIG. 10C, p<0.05
Experimental: as §4
as §5, with “1014-1020 (1999)). […]” for “1014-1020 (1999)).”

[10] = 2 μg/well NKp46D2-Ig, 10 μg/well peptide
[11] = HeLa cells, pep4 0.625 to 10 μg/well, FIG. 9D

T3 sequence (Q8NHL6 24-461 limits assumed): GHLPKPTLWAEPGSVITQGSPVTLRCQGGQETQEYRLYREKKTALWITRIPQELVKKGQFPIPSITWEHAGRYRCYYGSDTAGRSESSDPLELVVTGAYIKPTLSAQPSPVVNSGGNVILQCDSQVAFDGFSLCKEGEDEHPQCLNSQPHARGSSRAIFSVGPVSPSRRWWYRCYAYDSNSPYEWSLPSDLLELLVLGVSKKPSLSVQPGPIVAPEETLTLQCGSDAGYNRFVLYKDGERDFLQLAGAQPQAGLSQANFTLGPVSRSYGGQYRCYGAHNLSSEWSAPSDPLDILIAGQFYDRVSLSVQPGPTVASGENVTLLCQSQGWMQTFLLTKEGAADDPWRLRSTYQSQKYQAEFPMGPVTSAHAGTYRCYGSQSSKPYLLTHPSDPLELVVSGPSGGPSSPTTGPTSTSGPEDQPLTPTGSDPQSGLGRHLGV
T2 sequence (O76036 with tags, fused parts or gaps isoform O76036-6): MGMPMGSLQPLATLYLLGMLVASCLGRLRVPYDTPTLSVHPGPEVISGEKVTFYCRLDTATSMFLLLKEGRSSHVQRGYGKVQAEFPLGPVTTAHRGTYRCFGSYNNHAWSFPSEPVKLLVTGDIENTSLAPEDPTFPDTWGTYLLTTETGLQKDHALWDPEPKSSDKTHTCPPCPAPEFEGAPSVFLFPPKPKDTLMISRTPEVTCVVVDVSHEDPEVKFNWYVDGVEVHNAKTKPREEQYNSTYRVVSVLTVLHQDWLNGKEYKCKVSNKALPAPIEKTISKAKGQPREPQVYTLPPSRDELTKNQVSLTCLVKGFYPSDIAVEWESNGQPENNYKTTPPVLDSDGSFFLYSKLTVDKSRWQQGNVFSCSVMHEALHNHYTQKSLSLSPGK
T4 sequence (O76036 22-258 limits assumed): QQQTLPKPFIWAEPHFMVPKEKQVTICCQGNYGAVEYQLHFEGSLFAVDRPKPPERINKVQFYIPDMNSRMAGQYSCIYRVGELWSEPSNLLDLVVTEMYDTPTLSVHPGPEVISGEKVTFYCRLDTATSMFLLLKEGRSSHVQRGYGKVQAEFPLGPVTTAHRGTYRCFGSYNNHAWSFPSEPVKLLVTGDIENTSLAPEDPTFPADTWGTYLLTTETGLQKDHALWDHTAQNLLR

- Effect on NKp44-Ig binding to tumor cells [2]: Enhance (1)
Substance: EASAL VCIRL VTSSK PRTVA (EASALVCIRLVTSSKPRTVA) [SEQ ID NO: 32]
- Direct binding to tumor cells [1]: Yes (1)

- Effect on NKp44-Ig binding to tumor cells [2]: Enhance (1)
Substance: KGWCK EASAL VCIRL VTSSK (KGWCKEASALVCIRLVTSSK) [SEQ ID NO: 31]
- Direct binding to tumor cells [1]: Yes (1)

- Effect on NKp46D2L binding to cells [4, 10]: inhibiting binding
- Effect on NKp46D2L binding to cells ([4]; 2 μg/well NKp46D2-Ig, 10 μg/well peptide, listed as 6): Suppress (1)
- Binding of LIR1-Ig in the presence of peptide [5]: not affected
Substance: LDTAT SMFLL LKEGR SSHVQ (LDTATSMFLLLKEGRSSHVQ) [SEQ ID NO: 6]
- Direct binding to cells [3]: No

- Effect on NKp46D2L binding to cells [4, 10]: enhancing NKp46D2-Ig binding
- Effect on NKp46D2L binding to cells ([4]; 2 μg/well NKp46D2-Ig, 10 μg/well peptide, listed as 12): Enhance (3)
- Binding of LIR1-Ig in the presence of peptide [5]: not affected
Substance: PLGPV TTAHR GTYRC FGSYN (PLGPVTTAHRGTYRCFGSYN) [SEQ ID NO: 12]
- Direct binding to cells [3]: direct binding
- Direct binding to cells ([3]; listed as 12): Yes (3)

- Effect on NKp46D2L binding to cells [4, 10]: inhibiting binding
- Effect on NKp46D2L binding to cells ([4]; 2 μg/well NKp46D2-Ig, 10 μg/well peptide, listed as 4): Suppress (2)
- Binding of NKp46D2-Ig to HeLa cells upon co-incubation with peptide ([4]; Example 3, FIG. 9A, 2 μg/well NKp46D2-Ig, 10 μg/well peptide): inhibited binding
- Inhibition of rNKp46 binding across tumor cell lines ([4]; HeLa, PC-3, HEK293T, 721.221, CHO-K1 and MIN-6 cells, FIG. 9C): evident for numerous tumor cell lines
- Binding of LIR1-Ig in the presence of peptide [5]: not affected
- NKp46-Ig binding to tumor cells in the presence of peptide [6]: inhibited
Substance: SGEKV TFYCR LDTAT SMFLL (SGEKVTFYCRLDTATSMFLL) [SEQ ID NO: 4]
- Direct binding to cells [3]: No
- Binding inhibition of LIR1-Ig [5, 11]: did not induce significant binding inhibition
- Binding inhibition of NKp44-Ig [2, 11]: did not induce significant binding inhibition
- Binding inhibition of NKp30-Ig [7]: did not induce significant binding inhibition
- Lysis of target 721.221 and CHO-K1 cells by NK cells ([8]; 721.221 and CHO-K1 target cells): inhibition of lysis
- Lysis of target cells by NKp46-expressing NK cells ([8]; Example 1): inhibit lysis
- Blocking effect of anti-NKp46 serum on lysis when the peptide was present ([8]; anti-NKp46 serum compared to control serum, FIG. 10B): no blocking effect was observed
- Lysis of target cells in the presence of control serum ([8]; compared to control peptide, 15:1 E:T, FIG. 10B, p<0.01): inhibited lysis
- Lysis of target HeLa cells by human primary NK cell line ([8]; compared to mock1, 4 hr, FIG. 10A, p<0.01): significantly suppressed
- Percentage of CD107a+ NK cells [9]: significantly reduced

- Effect on NKp46D2L binding to cells [4, 10]: enhancing NKp46D2-Ig binding
- Effect on NKp46D2L binding to cells ([4]; 2 μg/well NKp46D2-Ig, 10 μg/well peptide, listed as 7): Enhance (2)
- Binding of LIR1-Ig in the presence of peptide [5]: not affected
Substance: SMFLL LKEGR SSHVQ RGYGK (SMFLLLKEGRSSHVQRGYGK) [SEQ ID NO: 7]
- Direct binding to cells [3]: direct binding
- Direct binding to cells ([3]; listed as 7): Yes (1)

- NKp46-Ig binding to tumor cells in the presence of peptide [6]: also inhibited
Substance: TFYCR LDTAT SMFLL (TFYCRLDTATSMFLL) [SEQ ID NO: 55]

- Effect on NKp46D2L binding to cells [4, 10]: inhibiting binding
- Effect on NKp46D2L binding to cells ([4]; 2 μg/well NKp46D2-Ig, 10 μg/well peptide, listed as 5): Suppress (2)
- Binding of LIR1-Ig in the presence of peptide [5]: not affected
- NKp46-Ig binding to tumor cells in the presence of peptide [6]: inhibited
Substance: TFYCR LDTAT SMFLL LKEGR (TFYCRLDTATSMFLLLKEGR) [SEQ ID NO: 5]
- Direct binding to cells [3]: No

- Effect on NKp46D2L binding to cells [4, 10]: enhancing NKp46D2-Ig binding
- Effect on NKp46D2L binding to cells ([4]; 2 μg/well NKp46D2-Ig, 10 μg/well peptide, listed as 13): Enhance (1.5)
- Binding of LIR1-Ig in the presence of peptide [5]: not affected
Substance: TTAHR GTYRC FGSYN NHAWS (TTAHRGTYRCFGSYNNHAWS) [SEQ ID NO: 13]
- Direct binding to cells [3]: direct binding
- Direct binding to cells ([3]; listed as 13): Yes (2)

- Effect on NKp44-Ig binding to tumor cells [2]: Enhance (1)
Substance: VCIRL VTSSK PRIMA WTSRF (VCIRLVTSSKPRTMAWTSRF) [SEQ ID NO: 33]

- Effect on NKp44-Ig binding to tumor cells [2]: inhibiting binding
- Effect on NKp44-Ig binding to tumor cells ([2]; listed as 34): Suppress (1.5)
Substance: VTSSK PRTVA WTSRF TIWDD (VTSSKPRTVAWTSRFTIWDD) [SEQ ID NO: 34]
- Direct binding to tumor cells [1]: No
